Reference: the supplement of paper PMC9732359
± gives the uncertainty stated by the source.

Assay: protein stability index of a GFP-peptide fusion (yeast GPS) (PSI 1-4); higher = more stable; sorted into four equal gates, so the index is relative within each strain
Conditions: doa10∆
How it was run: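 The protein stability index of a peptide was calculated by multiplying its read frequency in each gate by that gate's number and adding the products. The peptides were tiled 17-residue stretches of yeast proteins, fused downstream of GFP on a Cherry-expressing plasmid and carried in yeast as a pooled library. Mid-log cultures in leucine-free medium were sorted into four equal gates by GFP/Cherry ratio, and each gate's plasmids were PCR-amplified and Illumina-sequenced.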

Sequence	protein stability index
DLVIVDENELKKSEEKL [MTW1]	3.51 ± 0.19
DMATGSNDTTAFNDSCV [SRB8]	2.73 ± 0.05
DMPCDVLAKRMANLSQI [SCL1]	1.71 ± 0.09
DMVMATVKKGKPELRKK [RPL23A]	3.49 ± 0.15
DNGLGPLKYAPHLPFSK [SWI3]	3.13 ± 0.058
DNMITGVTKGYKYKMRY [RPL9A]	3.07 ± 0.096
DNPDQGISDMCRLFFTE [YCS4]	3.37 ± 0.14
DNSEYSRNGDFPRTRFE [RPN10]	3.13 ± 0.2
DNTARVIFDASIKDTQN [BRN1]	2.1 ± 0.078
DNTSHDEQDDDNVNSTT [BRN1]	3 ± 0.073
DNVDDIGEFNVSMYQNS [YDL088C/ASM4]	3.41 ± 0.23
DNYFNLQLNEAEEFVAG [SMX3]	2.76 ± 0.16
DPAHSLNYTVINFKSRE [AAR2]	3.07 ± 0.054
DPEEVEQQVAEEATTEE [RPS0A]	3.3 ± 0.086
DPKSPTKRSIAIVFEEI [YMR129W/POM152]	2.73 ± 0.074
DPLNSNIFSEAVKNKYN [PRP28]	1.81 ± 0.17
DPQQVFDERIKFANQLH [RPN3]	1.68 ± 0.09
DPSGSYFPWKATAIGKG [PRE8]	2.93 ± 0.1
DQDRGAARHKQHEQGTF [RRI2]	3.21 ± 0.1
DQEKKYGMSITETFEKP [RPB2]	2.85 ± 0.11
DQFQWILRKPGKDCKLQ [RRI2]	2.62 ± 0.19
DQHVINILWAIYNSASK [YCS4]	1.69 ± 0.044
DQIAVCEISGSIEQLRN [BRN1]	3.27 ± 0.16
DQNNKKMVGLRGFNNQI [SNF2]	3.35 ± 0.065
DQSISKLQSWDKVSSCF [NNF1]	1.51 ± 0.072

Sequence	protein stability index
DQVLNLCLTEFENCYLE [FAS1]	3.15 ± 0.1
DRCVDPEDPYFNTLVRI [DIS3]	3.39 ± 0.11
DRFKPNLDIAKDLIRTD [MED4]	3.38 ± 0.19
DRGIANIRNNIESQNLD [SRB4]	3.12 ± 0.14
DRKSIMPLKILLATKQH [CSN12]	1.9 ± 0.15
DRNNSTNQIFQSRRYNL [SIN4]	2.78 ± 0.047
DRVVSSDSLDIAQGIDL [SRP72]	2.85 ± 0.069
DRYGNRYFWLDHNGVPF [ITC1]	2.8 ± 0.094
DSEKHIDFAPTSPFGGA [RPS9A]	2.6 ± 0.06
DSETSDPNEVEIKKLLA [DIS3]	2.9 ± 0.075
DSIASVLSPDSNIMSDS [GAL11]	2.74 ± 0.1
DSIGSTRVEGSGGGDSE [RPT6]	2.6 ± 0.1
DSILNYAKSEFDNVASV [ECM29]	3.22 ± 0.11
DSKKIKVDSPDDPFMTK [GAL11]	2.55 ± 0.075
DSLASELTLAEQQVKEA [SMC4]	3.24 ± 0.21
DSNYKWDLSVEDALYLG [PRE2]	3.34 ± 0.085
DSQDYILSINAIDYEPE [SMC1]	3.25 ± 0.068
DSRLSRKQIDETQVLVS [BRR2]	1.61 ± 0.055
DSSGVNDLHHSEKKYAE [RPN3]	2.69 ± 0.11
DSTNLSDDAAQFMKRFP [ECM29]	2.65 ± 0.11
DSVILASSKAVTRGISV [PRE1]	2.14 ± 0.045
DSYGQGSMTKTWYVGNS [SSN2]	2.94 ± 0.13
DTIDNVKSKIQDKEGIP [RPS31]	3.22 ± 0.098
DTLKLRENLHILNEVFT [RRP6]	2.26 ± 0.092
DTLNETNLKMKRKWSYV [RRP43]	2.24 ± 0.061

Sequence	protein stability index
DTNVVLQAIDLLENPNC [DIS3]	2.84 ± 0.07
DTPEGEACGLVKNLALM [RET1]	2.14 ± 0.098
DTRFGGRMDMTRLYDYE [SSN2]	3.14 ± 0.1
DTRITHLLRQTNAFLDS [SNF2]	1.5 ± 0.037
DTVSWFKQKYDADVLDK [RPL11A]	2.06 ± 0.044
DVECIKAKSHFTNIISR [YJL039C/NUP192]	3.04 ± 0.092
DVKKRTYEAIDVPGREL [RPB2]	1.99 ± 0.15
DVKVIMATNKIETLDPA [RPT2]	3.17 ± 0.091
DVLHPNRANVSKDELRE [RPS24A]	3.35 ± 0.086
DVLTLENIQEGTSLTIQ [CDC53]	3.17 ± 0.1
DVNLDVRIHSIQVLTEA [IRR1]	2.19 ± 0.15
DVPSEDDPTQLVSRGGC [RPO21]	3.61 ± 0.28
DVSLLLQRDLFIRLPHW [RGR1]	2.5 ± 0.087
DVSQLIAGINKKKGLDE [PRP28]	3.43 ± 0.095
DVSRVAAVETLYQDMAA [RPL20A]	2.66 ± 0.066
DVTAIQTWSYLSLYSTD [ECM29]	1.52 ± 0.038
DWESDLHIHLNQILQTE [YDL116W/NUP84]	2.69 ± 0.1
DWNKRFSHLAGGKIINK [BRR2]	2.84 ± 0.075
DYLNAELGEFFVNGVAT [FAS2]	3.09 ± 0.093
EAAFRNIKTIAETLAEE [RPS5]	2.79 ± 0.084
EAFNDGNENFEDFDVEH [RPO26]	2.97 ± 0.079
EAHPTKVKNFGVWVRYD [RPL20A]	3.02 ± 0.087
EAKSFQDEAELVEEKTP [RPC82]	3.53 ± 0.12

Same assay, conditions: pdr5∆

Sequence	protein stability index
DLTGSEPIKEIIDNWEK [FAS1]	2.79 ± 0.15
